Reference: article PMC10177328, “High Intrinsic Oncogenic Potential in the Myc-Box-Deficient Hydra Myc3 Protein”

Target: T1, Hydra Myc3 bHLH-LZ (p13);Hydra Max bHLH-LZ (p13) (Hydra (strain  in the text …, UniProt A0A0H5FMB4;D0EM50 108-197;29-120, |))
T1 sequence 1: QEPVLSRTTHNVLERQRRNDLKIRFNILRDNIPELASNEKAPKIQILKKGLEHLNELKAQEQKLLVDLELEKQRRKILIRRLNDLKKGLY
T1 sequence 2: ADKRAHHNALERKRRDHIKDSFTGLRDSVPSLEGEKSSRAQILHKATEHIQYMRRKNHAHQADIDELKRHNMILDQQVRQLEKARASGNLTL
Assay: EMSA; 0-2000 nM protein; EMSA: 10 mM Tris-HCl pH 7.5, 0.5 mM EDTA, 65 mM KCl, 5 mM MgCl2, 1 mM DTT, 100 ug/mL BSA, 10% glycerol, 25 C, 45 min; native 6% PAGE
Details: protein: recombinant;recombinant, tags: N-terminal initiator Met, C-terminal His6;N-terminal initiator Met, copies: 1;1, label: 32P, blunt

B1: myc2 promoter E-box 18-mer (dsDNA)
DNA 1: ATAGCTCACGTGTCAATA
DNA 2: TATTGACACGTGAGCTAT
Kd: 16.3 nM
